In patent US20230295310A1 (ABCELLERA BIOLOGICS, published 2023):
Numbering of substitutions follows the chain as printed. Each block holds one binder with its values, some of them ahead of it.

Molecular target: human EGFR, C-terminal eGFP-tagged, on CHO-K1 cells (human, UniProt P00533 25-1210)
Experiment: cell-based or functional assay

EC50 CHO-K1 EGFR Low (nM); T cell activation bioassay, luciferase: 8.34 nM
EC50 CHO-K1 EGFR Med (nM); T cell activation bioassay, luciferase: 1.71 nM
B2: GOMP001_bsAb_023 (bispecific antibody, human IgG1, kappa, L234A L235A)
heavy 1: QVQLVQSGAEVKKPGASVKVSCKASGYTFTSHWMHWVRKAPGQGLEWIGEFNPSNGRTNYNEEFKSKATMTVDTSTNTAYMELSSLRSEDTAVYYCASRDYDYDGRYFDYWGQGTLVTVSSASTKGPSVFPLAPSSKSTSGGTAALGCLVADYFPEPVTVSWNSGALTSGVHTFPAVLQSSGLYSLSSVVTVPSSSLGTQTYICNVNHKPSNTKVDEKVEPKSCDKTHTCPPCPAPEAAGGPSVFLFPPKPKDTLMISRTPEVTCVVVDVSHEDPEVKFNWYVDGVEVHNAKTKPREEQYNSTYRVVSVLTVLHQDWLNGKEYKCKVSNKALPAPIEKTISKAKGQPREPQVYTLPPSREEMTDNQVSLTCLVKGFYPSDIAVEWESNGQPENNYKTTPPVLMSDGSFFLASKLTVDKSRWQQGNVFSCSVMHEALHNHYTQKSLSLSPG
light 1: RIQMTQSPSSLSASVGDRVTITCSASSSVTYMYWYQDKPGKAPKLLIYDTSNLASGVPSRFSGSGSGTDYTFTISSLQPEDIATYYCQQWSSHIFTFGQGTKVEIKRTVAAPSVFIFPPSDKQLKSGTARVVCLLNNFYPREAKVQWKVDNALQSGNSQESVTEQDSKDSTYSLSSTLTLSKADYEKHKVYACEVTHQGLSSPVTKSFNRGEC
heavy 2: QGQLVESGGGVVQPGRSLRLSCEASGFTFRSYGMHWVRYPPGKGLEWVAIIWYDGGKKYYGDRVKGRFTISRDNPKNTLYLQMNSLRPEDTAVYYCMAYDYSNGFDIWGRGTMVTVSSASTKGPSVFPLAPSSKSTSGGTAALGCLVKDYFPEPVTVSWNSGALTSGVHTFPAVLQSSGLYSLSSVVTVPSSSLGTQTYICNVNHKPSNTKVDKKVEPKSCDKTHTCPPCPAPEAAGGPSVFLFPPKPKDTLMISRTPEVTCVVVDVSHEDPEVKFNWYVDGVEVHNAKTKPREEQYNSTYRVVSVLTVLHQDWLNGKEYKCKVSNKALPAPIEKTISKAKGQPRRPRVYTLPPSREEMTKNQVSLVCLVKGFYPSDIAVEWESNGQPENNYKTTPPVLDSDGSFFLYSVLTVDKSRWQQGNVFSCSVMHEALHNHYTQKSLSLSPG
light 2: DIVMTQTPLSSPVTLGQPASISCRSSQSFVHSDGSTYLSWLQRRPGDPPRLLIYKISNRFSGVPDRFSGRGAGTDFTLKISRVEAEDVGIYYCMQNTQFPYTFGQGTKLEIKRTVAAPSVFIFPPSDEQLKSGTASVVCLLNNFYPREAKVQWKVDNALQSGNSQESVTEQDSKDSTYSLSSTLTLSKADYEKHKVYACEVTHQGLSSPVTKSFNRGEC

EC50 CHO-K1 EGFR Low (nM); T cell activation bioassay, luciferase: 0.235 nM
EC50 CHO-K1 EGFR Med (nM); T cell activation bioassay, luciferase: 0.0102 nM
B3: GOMP001_bsAb_020 (bispecific antibody, human IgG1, kappa, L234A L235A)
heavy 1: EVQLVDSGGGLVQPGGSLRLSCSGSGFTFSSYWMSWVRYAPGKGLEWVANIKQDGSQKYYVDRVKGRFTISRDNVKNSLYLQMNSLRVEDTAVYYCARDESSSWYWYFDLWGRGTLVTVSSASTKGPSVFPLAPSSKSTSGGTAALGCLVKDYFPEPVTVSWNSGALTSGVHTFPAVLQSSGLYSLSSVVTVPSSSLGTQTYICNVNHKPSNTKVDKKVEPKSCDKTHTCPPCPAPEAAGGPSVFLFPPKPKDTLMISRTPEVTCVVVDVSHEDPEVKFNWYVDGVEVHNAKTKPREEQYNSTYRVVSVLTVLHQDWLNGKEYKCKVSNKALPAPIEKTISKAKGQPRRPRVYTLPPSREEMTKNQVSLVCLVKGFYPSDIAVEWESNGQPENNYKTTPPVLDSDGSFFLYSVLTVDKSRWQQGNVFSCSVMHEALHNHYTQKSLSLSPG
light 1: DIQMTQSPSTLSASVGDRVTLTCRASQNIVKWLAWYQRKPGDAPKLLIYKASSLESGVPSWFSGSGSGTEFTLTINSLQPDDFATYYCQQYYTYSRTFGQGTKVEIKRTVAAPSVFIFPPSDEQLKSGTASVVCLLNNFYPREAKVQWKVDNALQSGNSQESVTEQDSKDSTYSLSSTLTLSKADYEKHKVYACEVTHQGLSSPVTKSFNRGEC
heavy 2: QVQLVQSGAEVKKPGASVKVSCKASGYTFTSHWMHWVRYAPGQGLEWIGEFNPSNGRTNYNEKFKSKATMTVDTSTNTAYMELSSLRSEDTAVYYCASRDYDYDGRYFDYWGRGTLVTVSSASTKGPSVFPLAPSSKSTSGGTAALGCLVKDYFPEPVTVSWNSGALTSGVHTFPAVLQSSGLYSLSSVVTVPSSSLGTQTYICNVNHKPSNTKVDKKVEPKSCDKTHTCPPCPAPEAAGGPSVFLFPPKPKDTLMISRTPEVTCVVVDVSHEDPEVKFNWYVDGVEVHNAKTKPREEQYNSTYRVVSVLTVLHQDWLNGKEYKCKVSNKALPAPIEKTISKAKGQPRRPRVYTLPPSREEMTKNQVSLVCLVKGFYPSDIAVEWESNGQPENNYKTTPPVLDSDGSFFLYSVLTVDKSRWQQGNVFSCSVMHEALHNHYTQKSLSLSPG
light 2: B2 light 1 with R1D, D37R, K41D, K122E, R130S

EC50 CHO-K1 EGFR Low (nM); T cell activation bioassay, luciferase: 4.27 nM
EC50 CHO-K1 EGFR Med (nM); T cell activation bioassay, luciferase: 0.257 nM
B5: GOMP001_bsAb_019 (bispecific antibody, human IgG1, kappa, L234A L235A)
heavy 1: B2 heavy 1
light 1: B2 light 1
heavy 2: B3 heavy 1
light 2: B3 light 1

The next lines start with the binder.

B1: GOMP001_bsAb_016 (bispecific antibody, human IgG1, kappa, L234A L235A)
heavy 1: QVQLVESGGGVVQPGRSLRLSCAASGFTFSGYGMHWVRYAPGKGLDWVAIIYYNGNNKYYADRVKGRFTISRDNSKNTLYLQMNSLRAEDTAVYYCARGGGYNWFDPWGRGTLVIVSSASTKGPSVFPLAPSSKSTSGGTAALGCLVKDYFPEPVTVSWNSGALTSGVHTFPAVLQSSGLYSLSSVVTVPSSSLGTQTYICNVNHKPSNTKVDKKVEPKSCDKTHTCPPCPAPEAAGGPSVFLFPPKPKDTLMISRTPEVTCVVVDVSHEDPEVKFNWYVDGVEVHNAKTKPREEQYNSTYRVVSVLTVLHQDWLNGKEYKCKVSNKALPAPIEKTISKAKGQPRRPRVYTLPPSREEMTKNQVSLVCLVKGFYPSDIAVEWESNGQPENNYKTTPPVLDSDGSFFLYSVLTVDKSRWQQGNVFSCSVMHEALHNHYTQKSLSLSPG
light 1: not shown
heavy 2: B3 heavy 2
light 2: B2 light 1 with R1D, D37R, K41D, K122E, R130S
EC50 CHO-K1 EGFR Low (nM); T cell activation bioassay, luciferase: 0.0531 nM
EC50 CHO-K1 EGFR Med (nM); T cell activation bioassay, luciferase: 0.00316 nM

B4: GOMP001_bsAb_017 (bispecific antibody, human IgG1, kappa, L234A L235A)
heavy 1: B2 heavy 1
light 1: B2 light 1
heavy 2: EVQLVESGGDLVQPGRSLRLSCAASGFTFDDCVIHWVRYAPGKGLEWVSGITWNSGRIGYADRVKGRFTISRDNAKNSLYLQMNSLRVEDTALYYCAKEGNYDFWSTYYRGYFDLWGRGTLVTVSSASTKGPSVFPLAPSSKSTSGGTAALGCLVKDYFPEPVTVSWNSGALTSGVHTFPAVLQSSGLYSLSSVVTVPSSSLGTQTYICNVNHKPSNTKVDKKVEPKSCDKTHTCPPCPAPEAAGGPSVFLFPPKPKDTLMISRTPEVTCVVVDVSHEDPEVKFNWYVDGVEVHNAKTKPREEQYNSTYRVVSVLTVLHQDWLNGKEYKCKVSNKALPAPIEKTISKAKGQPRRPRVYTLPPSREEMTKNQVSLVCLVKGFYPSDIAVEWESNGQPENNYKTTPPVLDSDGSFFLYSVLTVDKSRWQQGNVFSCSVMHEALHNHYTQKSLSLSPG
light 2: DIQMTQSPSSLSASVGDRVTITCRASQGIRNDLGWYQRKPGDAPKRLIYAASSLQGGVPLRFSGSGSGTEFTLTISSLQPEDFATYYCLQHNSYPYTFGQGTKLEIKRTVAAPSVFIFPPSDEQLKSGTASVVCLLNNFYPREAKVQWKVDNALQSGNSQESVTEQDSKDSTYSLSSTLTLSKADYEKHKVYACEVTHQGLSSPVTKSFNRGEC
EC50 CHO-K1 EGFR Low (nM); T cell activation bioassay, luciferase: 0.945 nM
EC50 CHO-K1 EGFR Med (nM); T cell activation bioassay, luciferase: 0.102 nM

B6: GOMP001_bsAb_018 (bispecific antibody, human IgG1, kappa, L234A L235A)
heavy 1: B4 heavy 2
light 1: B4 light 2
heavy 2: B3 heavy 2
light 2: B2 light 1 with R1D, D37R, K41D, K122E, R130S
EC50 CHO-K1 EGFR Low (nM); T cell activation bioassay, luciferase: 0.377 nM
EC50 CHO-K1 EGFR Med (nM); T cell activation bioassay, luciferase: 0.0442 nM
